Data as given in ChEMBL document CHEMBL1133169, “A light-inactivated antibiotic” (2000).

Substrate: CC(=O)OCC1=C(C(=O)O)N2C(=O)[C@@H](NC(=O)[C@@H](Cc3ccccc3)NNC(=O)OCc3ccccc3[N+](=O)[O-])C2SC1
Assay: The turnover kinetic parameter (Km) evaluated for Class A TEM-1 beta-lactamase

B1: Beta-lactamase TEM (Escherichia coli), P62593 (protein)
chain: MSIQHFRVALIPFFAAFCLPVFAHPETLVKVKDAEDQLGARVGYIELDLNSGKILESFRPEERFPMMSTFKVLLCGAVLSRVDAGQEQLGRRIHYSQNDLVEYSPVTEKHLTDGMTVRELCSAAITMSDNTAANLLLTTIGGPKELTAFLHNMGDHVTRLDRWEPELNEAIPNDERDTTMPAAMATTLRKLLTGELLTLASRQQLIDWMEADKVAGPLLRSALPAGWFIADKSGAGERGSRGIIAALGPDGKPSRIVVIYTTGSQATMDERNRQIAEIGASLIKHW
**Q.** B1 was tested. Which Km did it give?
**A.** 80 µM
